Test results published in the nanobody polyreactivity screen of Harvey et al. (2022).

Assay: yeast display, Sf9 membrane polyspecificity reagent, FACS + sequencing; frameworks hold sequencing errors
Summary of the method: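 After 36–48 hours of galactose induction, yeast (Saccharomyces cerevisiae BJ5465) displaying a synthetic nanobody library were stained at 4 °C for 1 hour with 10% biotinylated, detergent-solubilized Sf9 membrane reagent. Streptavidin microbeads enriched the stained cells before FACS sorting into low and high (top ~1%) gates on anti-HA and streptavidin fluorescence. Each clone's polyreactivity label reflects its gate of origin.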

Sequence | polyreactivity (PSR sort gate)
QVQLVESGGGLVQAGGSLRLSCAASGSTFYRYAMGWYRQAPGKERELVAAITRTGGSTYADSVKGRFTISRDNAKNTVYLQMNSLKPEDTAVYYCAVQRYYVSSISPFYYWGQGTQVTVSS | low polyreactivity
QVQLVESGGGLVQAGGSLRLSCAASGRTLTRYTMGWYRQAPGKERELVATISRSGGNTHYADSLKGRFTISRDNAKNTVYFQMNSLKPEDTAVFYCNAVRYAIYGYDYWGQGTQVTVSS | high polyreactivity
QVQHVKSGGGLVQAGGSLRLSCAASGSIFGYNTMGWYRQAPGKERELVATITYRGGSTYYADSVKGRFTISRDNAKNTVYLQMNSLKPEDTAVYYCARRVTRYPYTTWDSAGDYWGQGTQVTVSS | high polyreactivity
QVQLVESGGGLVQSGGSLRLSCAASGRTFYHYAMGWYRQAHGKERELVATITRNGGITYYADSVKGRFTISRDNAKNTVYLQMNSLKPEDTAVYYCIKRWGGPIQFDYWGQGTEVTVSS | low polyreactivity
QDQLVESGGGLVQAGGSLRLSCAPSGSTFGDYDMGGYRPAPGKERELVAAISNGGSTYYAASVKGRFTISRDNAKNTVYLQRNSLKPEDTADFYCNADNVEIRSTYEYGRYLYGYWGQGTQVTVSS | low polyreactivity
QVQLVESGGGLVQAGGSLRLSCAASGRTSVYNAMGWYRPAPGKERELVAAIRGGGGNTYYADSVKGRFTISRDNAKNTVYLQMNSLKPADTAVYYCAKGSVVYLLRGVKGHSMDYWGQGTQVTVSS | low polyreactivity
QVQLVESGGGLVQAGGSLRLSCAASGSIFGRYAMGWYRQAPGKERELVAAITFTGGSTYYADSVKGRFTISRDNAKNTVYLQMNSLKPEDTAVYYCAARSLFYRGYGYWGQGTQVTVSS | high polyreactivity
QVQLQESAGGLVKAGGSLRLSCAASGNISNHNDMRWYRQAPGKEREFVAGITAGGNTNYADSVKGRFTISRDNAKNTVYLQMNSLKPEDTAVYYCAAYPDYAKSYGYWGQGTQATVSS | low polyreactivity
QVQLVESGGGLVQAGGSLRLSCAASGRTFAVYAMGWYRPAPGKERELVAGITSGGSTNYADSVKGRFTISRDNAKNTVYLQMNSLKPEDTAVYYCAAENVYAGFGFVSIGDYWGQGTQVTVSS | low polyreactivity
QVQLVESGGGLVQAGGSLRLSCAASGSIFPSYAMGWYRQAPGKERELVAAISSRGGSTYYADSVKGRFTISRDNAKNTVYLQMNSLKPEDTAVYYCAADWSYYRRHFDYWGQGTQVTVSS | high polyreactivity
QVQLEESGGGLVQAGGSLRLSCAASGSTFVYNAMGWYRQAPGKEMELVAAISRRGGSTYYADSVKGRFTISRDNAKNTVYLQMNSLKPEDTAVYYCAADPSYYTYFSFDLSESDYWGQGTQVTVSS | low polyreactivity
QVQLVESGGGLVQAGGSLRLSCAACGSLFGYNAMGWYRQAPGKERELVAAISYSGGSTYYADSVKGRFTISRDNAKNTDFLQMNSLKPEETAVYYCNAYRRYKDEDYWGQGTQVTVSS | high polyreactivity
QVQLVESGGRLVQARGSLRLSCAASGSIFATYVMGWYRQAPGKERELVATITYSGDSTYYADSVKGRFTISRDNAKNTVYLQMNSVKPEDTAVYYCAADYFTLYPYRGFDYWGQGTQVTVSS | low polyreactivity
QVQLVESGGGLVQAGGSLRLSCAASGITYRYNAMGWYRQAPGKEREMVAAISTSGGNTYYADSVKGRFTISRDNAKYTVYLQLNSLKPEDTAVYYCAVDGEYWYDYDGDYWGQGTQVTVSS | low polyreactivity
QLQLVESGGGLVQAGGSLRLICADSGRTFPSNTMGWYRQAPGKERELVAAITNSGGSTYYADSVKGRFTISRDNAKNTVYLQMNSLKPEDTAVYYCAKVVGAPYVEYDYWGQGTQVSVSS | low polyreactivity
QVQLVESGGGLVQAGGSLRLSCAASGSTFSFNDMGWYRQAPGKERELVADISWSGDTTYADSVKGRFTISRDNAKKTVYLQMNSLKPEDTGVYYCDADRHRYQGYTYDYWGQGTQVTVSS | high polyreactivity
QVQLVDSGGGLVQAGGSLRLSCAASGSTFISYAMRWYRPAPGKERELVAAISSSTGRTYYADSVKGRFTISRDNAKNTVYLQMNSLKPEDTAVYYCNAVHRYERVYWGQGTQVTVSS | high polyreactivity
QVQLVESGGGLVQAGGSLRLSCAASGRTFDKYAMGCYRPAPGTQRELVAAINSSGGSTYYSDSVKGRFTISRDNEKNTVYLQMNSLKPEDTAFYYCAALGIGSYRRYSCYDYWGQGPQVTVSS | low polyreactivity
QVQLVESGGGLVQAGGSLRLSCAASGRTFLIYAMGWYRQAPGKERELVAGITRGSTTYADSVKGRFTISRDNAKNTVYLQMNSLKPEDTEVYYCAARNYSVATYGEYDYWGQGTQVTVSS | high polyreactivity
QVQLVESGGGLVQAGGSLRLSCAASGRIFAYNAMGWYRQAPGKERELVAAISSSDDDTYYADSVKGRFTISRDNAKNTVYLQMNSLKPEDTAAYYCAAEWDTDRLWAGPRGSLYDYWGQGTQVTVSS | high polyreactivity
QVQLVESGGGLVQAGGSLRLSCAASGSTFSYNAMGWYRQAPGKERELVAAINLRGGNTYYADSVKGRFTISRDNAKNTVYLQMNSLKPEDTAVYYCARTRRHSQNFDYWGQGTQVIVSS | high polyreactivity
QVQLVESGGGLVQAGGSLRLSCAASGGIIWAYAMGWYRQAPGKERELVAAISSSTGTTYYADSVKGRFTISRDNAKNTVYLQMNSLKPEDTAVYYCAAYAYIGDYVSYYGGDYWGQGTQVTVSS | low polyreactivity
